The results in this text go back to PMC11282289, “Serial X-ray liquidography: multi-dimensional assay framework for exploring biomolecular structural dynamics with microgram quantities” (Nature Communications, 2024).

This data set concerns the molecule itself. Put plainly: static small angle X-ray scattering (SAXS); conventional static SAXS, flow cell, no laser (ground state); difference scattering between wild type and monomeric mutant; 25 mM Tris pH 7.5, 100 mM NaCl, 2 mM DTT.

B1: Arabidopsis thaliana UV-B resistance 8 (AtUVR8), wild type, residues 12-381 (domain or fragment, UniProt Q9FN03 12-381, looked up)
chain: APPRKVLIISAGASHSVALLSGDIVCSWGRGEDGQLGHGDAEDRPSPTQLSALDGHQIVSVTCGADHTVAYSQSGMEVYSWGWGDFGRLGHGNSSDLFTPLPIKALHGIRIKQIACGDSHCLAVTMEGEVQSWGRNQNGQLGLGDTEDSLVPQKIQAFEGIRIKMVAAGAEHTAAVTEDGDLYGWGWGRYGNLGLGDRTDRLVPERVTSTGGEKMSMVACGWRHTISVSYSGALYTYGWSKYGQLGHGDLEDHLIPHKLEALSNSFISQISGGWRHTMALTSDGKLYGWGWNKFGQVGVGNNLDQCSPVQVRFPDDQKVVQVSCGWRHTLAVTERNNVFAWGRGTNGQLGIGESVDRNFPKIIEALSVDG
notes: UV-B resistance 8 (UVR8), Arabidopsis thaliana, residues 12-381; Homodimer in the dark (ground) state; also called 2M-T-AtUVR8-His; source: E. coli BL21(DE3) GOLD, purified (IMAC, TEV cleavage, Q-Sepharose, MBPTrap flow-through); not shown: MBP-His-tag, N-terminal, cleaved
In the case of B1, the binding result is reported as “binds”.
